Assay results as given in the supplement of paper PMC10567573.

B1: EPB41L3 (parent)
chain: SMQCKVILLDGSEYTCDVEKRSRG

Variants of: B1
Test: protein stability index of a GFP-peptide fusion (GPS, HEK-293T) (PSI 1-6); higher = more stable
Conditions: c terminus: a fixed tail appended
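Note: lentivirally expressed fusions sorted by FACS into six bins by GFP to DsRed ratio, PSI derived from sequencing read proportions per bin multiplied by bin number.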

Question: For SMQCKQILLDGSEYTCDVEKRSRG [V6Q], which protein stability index is on record?
Answer: 2.97

Question: For SMQCKGILLDGSEYTCDVEKRSRG [V6G], which protein stability index is on record?
Answer: 3.61

Question: With SMQCKPILLDGSEYTCDVEKRSRG [V6P] as the variant, how does the protein stability index read?
Answer: 4.68

Question: For SMQCKHILLDGSEYTCDVEKRSRG [V6H], which protein stability index is on record?
Answer: 2.56

Question: For SMQCKDILLDGSEYTCDVEKRSRG [V6D], which protein stability index is on record?
Answer: 4.38

Question: Which protein stability index does the source give for SMQCKIILLDGSEYTCDVEKRSRG [V6I] here?
Answer: 2.2

Question: For SMQCKCILLDGSEYTCDVEKRSRG [V6C], which protein stability index is on record?
Answer: 2.07

Question: With SMQCKLILLDGSEYTCDVEKRSRG [V6L] as the variant, how does the protein stability index read?
Answer: 2.44

Question: With SMQCKNILLDGSEYTCDVEKRSRG [V6N] as the variant, how does the protein stability index read?
Answer: 4.5

Question: With SMQCKEILLDGSEYTCDVEKRSRG [V6E] as the variant, how does the protein stability index read?
Answer: 4.55

Question: For SMQCKMILLDGSEYTCDVEKRSRG [V6M], which protein stability index is on record?
Answer: 3.36

Question: With SMQCKAILLDGSEYTCDVEKRSRG [V6A] as the variant, how does the protein stability index read?
Answer: 2.1

Question: With SMQCKFILLDGSEYTCDVEKRSRG [V6F] as the variant, how does the protein stability index read?
Answer: 2.76

Question: For SMQCTVILLDGSEYTCDVEKRSRG [K5T], which protein stability index is on record?
Answer: 2.54

Question: With SMQCWVILLDGSEYTCDVEKRSRG [K5W] as the variant, how does the protein stability index read?
Answer: 2.59

Question: For SMQCNVILLDGSEYTCDVEKRSRG [K5N], which protein stability index is on record?
Answer: 3.06

Question: Which protein stability index does the source give for SMQCDVILLDGSEYTCDVEKRSRG [K5D] here?
Answer: 3.96

Question: With SMQCYVILLDGSEYTCDVEKRSRG [K5Y] as the variant, how does the protein stability index read?
Answer: 3.16

Question: With SMQCGVILLDGSEYTCDVEKRSRG [K5G] as the variant, how does the protein stability index read?
Answer: 3.57

Question: With SMQCPVILLDGSEYTCDVEKRSRG [K5P] as the variant, how does the protein stability index read?
Answer: 3.85

Question: For SMQCFVILLDGSEYTCDVEKRSRG [K5F], which protein stability index is on record?
Answer: 1.58

Question: With SMQCQVILLDGSEYTCDVEKRSRG [K5Q] as the variant, how does the protein stability index read?
Answer: 3.06

Question: For SMQCRVILLDGSEYTCDVEKRSRG [K5R], which protein stability index is on record?
Answer: 2.06

Question: With SMQCCVILLDGSEYTCDVEKRSRG [K5C] as the variant, how does the protein stability index read?
Answer: 1.77

Question: With SMQCMVILLDGSEYTCDVEKRSRG [K5M] as the variant, how does the protein stability index read?
Answer: 1.43

Question: For SMQCLVILLDGSEYTCDVEKRSRG [K5L], which protein stability index is on record?
Answer: 1.31

Question: Which protein stability index does the source give for SMQCEVILLDGSEYTCDVEKRSRG [K5E] here?
Answer: 3.48

Question: Which protein stability index does the source give for SMQCHVILLDGSEYTCDVEKRSRG [K5H] here?
Answer: 2.39

Question: Which protein stability index does the source give for SMQCAVILLDGSEYTCDVEKRSRG [K5A] here?
Answer: 3.27

Question: For SMQCSVILLDGSEYTCDVEKRSRG [K5S], which protein stability index is on record?
Answer: 3.04

Question: With SEQCKVILLDGSEYTCDVEKRSRG [M2E] as the variant, how does the protein stability index read?
Answer: 4.4

Question: With SVQCKVILLDGSEYTCDVEKRSRG [M2V] as the variant, how does the protein stability index read?
Answer: 2.6

Question: For SGQCKVILLDGSEYTCDVEKRSRG [M2G], which protein stability index is on record?
Answer: 3.36

Question: With STQCKVILLDGSEYTCDVEKRSRG [M2T] as the variant, how does the protein stability index read?
Answer: 3.53

Question: Which protein stability index does the source give for SLQCKVILLDGSEYTCDVEKRSRG [M2L] here?
Answer: 2.55

Question: For SQQCKVILLDGSEYTCDVEKRSRG [M2Q], which protein stability index is on record?
Answer: 3.64

Question: With SCQCKVILLDGSEYTCDVEKRSRG [M2C] as the variant, how does the protein stability index read?
Answer: 2.08

Question: For SKQCKVILLDGSEYTCDVEKRSRG [M2K], which protein stability index is on record?
Answer: 3.24

Question: Which protein stability index does the source give for SFQCKVILLDGSEYTCDVEKRSRG [M2F] here?
Answer: 2.55

Question: For SHQCKVILLDGSEYTCDVEKRSRG [M2H], which protein stability index is on record?
Answer: 2.9

Question: With SAQCKVILLDGSEYTCDVEKRSRG [M2A] as the variant, how does the protein stability index read?
Answer: 3.24

Question: With SSQCKVILLDGSEYTCDVEKRSRG [M2S] as the variant, how does the protein stability index read?
Answer: 3.2

Question: Which protein stability index does the source give for SPQCKVILLDGSEYTCDVEKRSRG [M2P] here?
Answer: 3.42

Question: With SDQCKVILLDGSEYTCDVEKRSRG [M2D] as the variant, how does the protein stability index read?
Answer: 3.38

Question: Which protein stability index does the source give for SYQCKVILLDGSEYTCDVEKRSRG [M2Y] here?
Answer: 1.5

Question: Which protein stability index does the source give for SIQCKVILLDGSEYTCDVEKRSRG [M2I] here?
Answer: 2.12

Question: Which protein stability index does the source give for SNQCKVILLDGSEYTCDVEKRSRG [M2N] here?
Answer: 4.06

Question: For SRQCKVILLDGSEYTCDVEKRSRG [M2R], which protein stability index is on record?
Answer: 2.72

Question: For GMQCKVILLDGSEYTCDVEKRSRG [S1G], which protein stability index is on record?
Answer: 2.37

Question: With YMQCKVILLDGSEYTCDVEKRSRG [S1Y] as the variant, how does the protein stability index read?
Answer: 1.37

Question: With DMQCKVILLDGSEYTCDVEKRSRG [S1D] as the variant, how does the protein stability index read?
Answer: 3.27

Question: With NMQCKVILLDGSEYTCDVEKRSRG [S1N] as the variant, how does the protein stability index read?
Answer: 2.34

Question: For WMQCKVILLDGSEYTCDVEKRSRG [S1W], which protein stability index is on record?
Answer: 2

Question: For QMQCKVILLDGSEYTCDVEKRSRG [S1Q], which protein stability index is on record?
Answer: 2.64

Question: With LMQCKVILLDGSEYTCDVEKRSRG [S1L] as the variant, how does the protein stability index read?
Answer: 2.2

Question: With EMQCKVILLDGSEYTCDVEKRSRG [S1E] as the variant, how does the protein stability index read?
Answer: 3.32

Question: For KMQCKVILLDGSEYTCDVEKRSRG [S1K], which protein stability index is on record?
Answer: 1.93

Question: Which protein stability index does the source give for HMQCKVILLDGSEYTCDVEKRSRG [S1H] here?
Answer: 2.19

Question: For RMQCKVILLDGSEYTCDVEKRSRG [S1R], which protein stability index is on record?
Answer: 1.95

Question: For MMQCKVILLDGSEYTCDVEKRSRG [S1M], which protein stability index is on record?
Answer: 3.46

Question: For FMQCKVILLDGSEYTCDVEKRSRG [S1F], which protein stability index is on record?
Answer: 2

Question: With IMQCKVILLDGSEYTCDVEKRSRG [S1I] as the variant, how does the protein stability index read?
Answer: 1.93

Question: Which protein stability index does the source give for CMQCKVILLDGSEYTCDVEKRSRG [S1C] here?
Answer: 1.74

Question: With VMQCKVILLDGSEYTCDVEKRSRG [S1V] as the variant, how does the protein stability index read?
Answer: 1.78

Question: For AMQCKVILLDGSEYTCDVEKRSRG [S1A], which protein stability index is on record?
Answer: 2.86

Question: For PMQCKVILLDGSEYTCDVEKRSRG [S1P], which protein stability index is on record?
Answer: 3.04

Question: For TMQCKVILLDGSEYTCDVEKRSRG [S1T], which protein stability index is on record?
Answer: 1.92

Question: Which protein stability index does the source give for SMDCKVILLDGSEYTCDVEKRSRG [Q3D] here?
Answer: 3.75

Question: With SMWCKVILLDGSEYTCDVEKRSRG [Q3W] as the variant, how does the protein stability index read?
Answer: 1.19

Question: For SMTCKVILLDGSEYTCDVEKRSRG [Q3T], which protein stability index is on record?
Answer: 2.48

Question: For SMRCKVILLDGSEYTCDVEKRSRG [Q3R], which protein stability index is on record?
Answer: 2.37

Question: For SMMCKVILLDGSEYTCDVEKRSRG [Q3M], which protein stability index is on record?
Answer: 3.35

Question: With SMECKVILLDGSEYTCDVEKRSRG [Q3E] as the variant, how does the protein stability index read?
Answer: 3.81

Question: Which protein stability index does the source give for SMICKVILLDGSEYTCDVEKRSRG [Q3I] here?
Answer: 2.44

Question: Which protein stability index does the source give for SMVCKVILLDGSEYTCDVEKRSRG [Q3V] here?
Answer: 2.63

Question: With SMFCKVILLDGSEYTCDVEKRSRG [Q3F] as the variant, how does the protein stability index read?
Answer: 3.2

Question: Which protein stability index does the source give for SMYCKVILLDGSEYTCDVEKRSRG [Q3Y] here?
Answer: 2.07

Question: Which protein stability index does the source give for SMACKVILLDGSEYTCDVEKRSRG [Q3A] here?
Answer: 2.9

Question: Which protein stability index does the source give for SMLCKVILLDGSEYTCDVEKRSRG [Q3L] here?
Answer: 1.49

Question: Which protein stability index does the source give for SMKCKVILLDGSEYTCDVEKRSRG [Q3K] here?
Answer: 2.68

Question: Which protein stability index does the source give for SMNCKVILLDGSEYTCDVEKRSRG [Q3N] here?
Answer: 2.76

Question: With SMCCKVILLDGSEYTCDVEKRSRG [Q3C] as the variant, how does the protein stability index read?
Answer: 2.16

Question: For SMHCKVILLDGSEYTCDVEKRSRG [Q3H], which protein stability index is on record?
Answer: 2.83

Question: For SMGCKVILLDGSEYTCDVEKRSRG [Q3G], which protein stability index is on record?
Answer: 2.38

Question: With SMSCKVILLDGSEYTCDVEKRSRG [Q3S] as the variant, how does the protein stability index read?
Answer: 2.98

Question: For SMPCKVILLDGSEYTCDVEKRSRG [Q3P], which protein stability index is on record?
Answer: 3.63

Question: With SMQIKVILLDGSEYTCDVEKRSRG [C4I] as the variant, how does the protein stability index read?
Answer: 2.41

Question: Which protein stability index does the source give for SMQFKVILLDGSEYTCDVEKRSRG [C4F] here?
Answer: 2.03

Question: For SMQTKVILLDGSEYTCDVEKRSRG [C4T], which protein stability index is on record?
Answer: 3.61

Question: For SMQMKVILLDGSEYTCDVEKRSRG [C4M], which protein stability index is on record?
Answer: 2.6

Question: With SMQDKVILLDGSEYTCDVEKRSRG [C4D] as the variant, how does the protein stability index read?
Answer: 4.23

Question: With SMQAKVILLDGSEYTCDVEKRSRG [C4A] as the variant, how does the protein stability index read?
Answer: 3.93

Question: For SMQVKVILLDGSEYTCDVEKRSRG [C4V], which protein stability index is on record?
Answer: 3.17

Question: With SMQQKVILLDGSEYTCDVEKRSRG [C4Q] as the variant, how does the protein stability index read?
Answer: 4.28
